{
  "source": "paper PMC5055493",
  "about": "“The PilZ domain of MrkH represents a novel DNA binding motif” (Protein & Cell, 2016)",
  "key": {"MrkH^105-end": {"target": "T1, MrkH^105-end (Klebsiella pneumoniae, UniProt G3FT00)", "T1 construct": "PilZ domain with interdomain linker, residues 105-end", "assay": "ITC", "assay_type": "binding", "source_text": "ITC on MrkH^105-end | MrkH^105-end also binds to c-di-GMP efficiently"}, "MrkH": {"target": "T2, MrkH (Klebsiella pneumoniae, UniProt G3FT00)", "T2 construct": "full-length MrkH, YcgR-N plus PilZ domains; monomer; recombinant", "assay": "ITC", "assay_type": "binding"}, "[1]": {"target": "T3, MBP-MrkH (Klebsiella pneumoniae) (UniProt G3FT00)", "T3 sequence": "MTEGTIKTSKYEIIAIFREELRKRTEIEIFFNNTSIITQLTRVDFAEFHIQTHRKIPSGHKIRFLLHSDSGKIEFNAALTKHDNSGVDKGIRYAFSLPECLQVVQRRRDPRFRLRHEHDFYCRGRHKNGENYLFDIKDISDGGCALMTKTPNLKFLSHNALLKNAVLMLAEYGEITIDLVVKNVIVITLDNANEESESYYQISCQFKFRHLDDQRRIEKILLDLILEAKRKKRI", "assay": "EMSA", "conditions": "EMSA: 50 mM Tris pH 8.0, 100 mM NaCl, 5 mM MgCl2, 20 ul, 100 min on ice; FP: 10 nM FAM-DNA, 25 C, buffer not fully given. Fig. 2G Kd values (High, 10.3, High …)"}, "[2]": {"target": "T4, MBP-MrkH-PilZ domain (Klebsiella pneumoniae) (UniProt G3FT00)", "T4 sequence": "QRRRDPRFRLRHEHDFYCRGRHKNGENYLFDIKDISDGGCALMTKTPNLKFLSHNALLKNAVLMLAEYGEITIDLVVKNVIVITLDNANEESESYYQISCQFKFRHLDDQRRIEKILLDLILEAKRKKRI", "assay": "EMSA", "conditions": "EMSA: 50 mM Tris pH 8.0, 100 mM NaCl, 5 mM MgCl2, 20 ul, 100 min on ice; FP: 10 nM FAM-DNA, 25 C, buffer not fully given. Fig. 2G Kd values (High, 10.3, High …)"}, "[3]": {"target": "T5, MrkH (tag removed) (Klebsiella pneumoniae) (UniProt G3FT00)", "T5 sequence": "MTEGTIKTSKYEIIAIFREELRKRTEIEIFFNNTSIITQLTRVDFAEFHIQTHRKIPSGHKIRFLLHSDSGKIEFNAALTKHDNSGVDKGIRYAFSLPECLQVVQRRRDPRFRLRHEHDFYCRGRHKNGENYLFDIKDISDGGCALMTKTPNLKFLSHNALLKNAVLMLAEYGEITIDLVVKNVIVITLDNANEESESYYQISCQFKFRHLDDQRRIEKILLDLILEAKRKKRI", "assay": "fluorescence polarization", "conditions": "EMSA: 50 mM Tris pH 8.0, 100 mM NaCl, 5 mM MgCl2, 20 ul, 100 min on ice; FP: 10 nM FAM-DNA, 25 C, buffer not fully given. Fig. 2G Kd values (High, 10.3, High …)"}, "MrkH K89A": {"target": "MrkH K89A (Klebsiella pneumoniae, UniProt G3FT00 1-234, K89A)", "assay": "fluorescence polarization; little effect of mutation; EMSA: 50 mM Tris pH 8.0, 100 mM NaCl, 5 mM MgCl2, 20 ul, 100 min on ice; FP: 10 nM FAM-DNA, 25 C, buffer not fully given. Fig. 2G Kd values (High, 10.3, High, 7.5, 24.3, 10.6, 12.7, High) cannot be assigned to mutants. PilZ mutants of Fig. S3B (all lose mrkA binding in EMSA) are not individually named in the material", "conditions": "protein: recombinant; tags: none; label: 5'-FAM; blunt"}, "MrkH K207A": {"target": "MrkH K207A (Klebsiella pneumoniae, UniProt G3FT00 1-234, K207A)", "assay": "fluorescence polarization; little effect of mutation; EMSA: 50 mM Tris pH 8.0, 100 mM NaCl, 5 mM MgCl2, 20 ul, 100 min on ice; FP: 10 nM FAM-DNA, 25 C, buffer not fully given. Fig. 2G Kd values (High, 10.3, High, 7.5, 24.3, 10.6, 12.7, High) cannot be assigned to mutants. PilZ mutants of Fig. S3B (all lose mrkA binding in EMSA) are not individually named in the material", "conditions": "protein: recombinant; tags: none; label: 5'-FAM; blunt"}, "MrkH K154A": {"target": "MrkH K154A (Klebsiella pneumoniae, UniProt G3FT00 1-234, K154A)", "assay": "fluorescence polarization; little effect of mutation; EMSA: 50 mM Tris pH 8.0, 100 mM NaCl, 5 mM MgCl2, 20 ul, 100 min on ice; FP: 10 nM FAM-DNA, 25 C, buffer not fully given. Fig. 2G Kd values (High, 10.3, High, 7.5, 24.3, 10.6, 12.7, High) cannot be assigned to mutants. PilZ mutants of Fig. S3B (all lose mrkA binding in EMSA) are not individually named in the material", "conditions": "protein: recombinant; tags: none; label: 5'-FAM; blunt"}, "MrkH K163A": {"target": "MrkH K163A (Klebsiella pneumoniae, UniProt G3FT00 1-234, K163A)", "assay": "fluorescence polarization; little effect of mutation; EMSA: 50 mM Tris pH 8.0, 100 mM NaCl, 5 mM MgCl2, 20 ul, 100 min on ice; FP: 10 nM FAM-DNA, 25 C, buffer not fully given. Fig. 2G Kd values (High, 10.3, High, 7.5, 24.3, 10.6, 12.7, High) cannot be assigned to mutants. PilZ mutants of Fig. S3B (all lose mrkA binding in EMSA) are not individually named in the material", "conditions": "protein: recombinant; tags: none; label: 5'-FAM; blunt"}, "MrkH (tag removed) [4]": {"target": "T6, MrkH (tag removed) (Klebsiella pneumoniae, UniProt G3FT00 1-234)", "assay": "fluorescence polarization; no c-di-GMP; EMSA: 50 mM Tris pH 8.0, 100 mM NaCl, 5 mM MgCl2, 20 ul, 100 min on ice; FP: 10 nM FAM-DNA, 25 C, buffer not fully given. Fig. 2G Kd values (High, 10.3, High, 7.5, 24.3, 10.6, 12.7, High) cannot be assigned to mutants. PilZ mutants of Fig. S3B (all lose mrkA binding in EMSA) are not individually named in the material", "conditions": "protein: recombinant; tags: none (tag removed for FP); label: 5'-FAM; blunt"}, "MrkH (tag removed) [5]": {"target": "T6, MrkH (tag removed)", "assay": "fluorescence polarization; EMSA: 50 mM Tris pH 8.0, 100 mM NaCl, 5 mM MgCl2, 20 ul, 100 min on ice; FP: 10 nM FAM-DNA, 25 C, buffer not fully given. Fig. 2G Kd values (High, 10.3, High, 7.5, 24.3, 10.6, 12.7, High) cannot be assigned to mutants. PilZ mutants of Fig. S3B (all lose mrkA binding in EMSA) are not individually named in the material", "conditions": "protein: recombinant; tags: none (tag removed for FP); label: 5'-FAM; blunt"}},
  "data": [
    {"molecule": "Nc1nc2c(ncn2[C@@H]2O[C@@H]3CO[P@](=O)(O)O[C@H]4[C@@H](O)[C@H](n5cnc6c(=O)[nH]c(N)nc65)O[C@@H]4CO[P@](=O)(O)O[C@H]3[C@H]2O)c(=O)[nH]1", "note": "[c-di-GMP]", "values": [
      {"measurement": "Kd", "setting": "MrkH^105-end", "result": "0.45 ± 0.1", "unit": "µM"},
      {"measurement": "Kd", "setting": "MrkH", "result": "~0.24", "unit": "µM"}
    ]},
    {"molecule": "ACTTAAGTTTTTATCCTTCGACCGGTCTCCAGCTTGGAGGCCGTTGTCGTTTTTGTCATGACCAAAATTCGAAACTCTTGATTACAGGAAATACAATATCAAATTCCAAGTTTATACATATCAATCTGGCTGCAAAGATAGTCAATAACATCAAACGCTCATAAAAACATCTGATTAACCCAATCAGAATGTTGCTATTGCTATAAGAAAAATCAAACGCCTCACGACAACTATTTACAAGGGATGCAT (double strand) [mrkHI promoter 250 bp]", "values": [
      {"measurement": "binding", "setting": "[1]", "result": "binds"},
      {"measurement": "binding", "setting": "[2]", "result": "binds"}
    ]},
    {"molecule": "GCTGCGCTGTAAACAACCACCCTCGCGTTTTCATCTATCAATGGCTGTTTATTAATAGTCGATGGTTATCTGTTATATAACTTAATGAAACGTGAACAAATGTATATTTGTCGGCGAATAAATAGCATTCTTTGACGCCGATAGCACCAGCGAACTTATATTTTTAGGTTCGTTACCTGACGCCTTAAATATTGCGGCTCCCGGTCAGTCGAAGATTCTATTAGCAGTGGCATAAATCAGCATCGCCTGATGTTTCTGGTTCTATGCGAATTCACAGTGTGCT (double strand) [PmrkA -117 to +166 (FAM)]", "values": [
      {"measurement": "Kd", "setting": "[3]", "result": 3.07, "unit": "µM"}
    ]},
    {"molecule": "PmrkA -117 to -37 (FAM) (dsDNA) DNA 1: GCTGCGCTGTAAACAACCACCCTCGCGTTTTCATCTATCAATGGCTGTTTATTAATAGTCGATGGTTATCTGTTATATAA DNA 2: TTATATAACAGATAACCATCGACTATTAATAAACAGCCATTGATAGATGAAAACGCGAGGGTGGTTGTTTACAGCGCAGC", "values": [
      {"measurement": "binding result", "setting": "MrkH K89A", "result": "binds"},
      {"measurement": "binding result", "setting": "MrkH K207A", "result": "binds"},
      {"measurement": "binding result", "setting": "MrkH K154A", "result": "binds"},
      {"measurement": "binding result", "setting": "MrkH K163A", "result": "binds"},
      {"measurement": "Kd", "setting": "MrkH (tag removed) [4]", "result": "8.24 ± 2.23", "unit": "µM"}
    ]},
    {"molecule": "80 bp random sequence (FAM) (dsDNA) DNA 1: ATAAATAGCATTCTTTGACGCCGATAGCACCAGCGAACTTATATTTTTAGGTTCGTTACCTGACGCCTTAAATATTGCGG DNA 2: CCGCAATATTTAAGGCGTCAGGTAACGAACCTAAAAATATAAGTTCGCTGGTGCTATCGGCGTCAAAGAATGCTATTTAT", "values": [
      {"measurement": "Kd", "setting": "MrkH (tag removed) [5]", "result": "7.45 ± 2.81", "unit": "µM"}
    ]}
  ]
}
